Measured values from publication PMC3507683, “Crystal Structure of the Hexachlorocyclohexane Dehydrochlorinase (LinA-Type2): Mutational Analysis, Thermostability and Enantioselectivity” (PLoS ONE, 2012).

Biological target: the molecule itself
Experiment: crystal structure; hanging drop, 293 K, 0.1 M trisodium citrate pH 5.5, 3% PEG 3350; space group P6(3)22; seven subunits in the asymmetric unit; 3.5 Å

B1: Hexachlorocyclohexane dehydrochlorinase LinA-type2 (enzyme, UniProt P51697 1-156, looked up)
chain: MSDLDRLASRAAIQDLYSDQLIGVDKRQEGRLASIWWDDAEWTIEGIGTYKGPEGALDLANNVLWPMYHETIHYGTNLRLEFVSADKVNGIGDVLCLGNLVEGNQSILIAAVYTNEYERRDGVWKFSKLNGCMNYFTPLAGIHFAPPGIHFAPSGA
notes: LinA-type2, gamma-hexachlorocyclohexane dehydrochlorinase variant obtained by PCR from metagenomic DNA of an HCH-contaminated soil (GenBank EU863871); It differs by 10 residues from LinA-type1 (= LinA-UT26 of Sphingobium japonicum UT26, 156 amino acids); The printed primers run from the ATG start codon to the last codon, without a stop codon; Homotrimer; also called -type2 protein; source: E. …
stoichiometry N: 3
